In PMC10814857, “Functional Classification and Interaction Selectivity Landscape of the Human SH3 Domain Superfamily” (Cells, 2024):
Like-named read-outs stand apart in the source and are kept apart here.

Assays:
Assay in all cases: FP
[1] = target: P7, fluorescein-labelled proline-rich peptide from the SOS1 proline-rich domain (human) (UniProt Q07889)
[2] = target: P3, fluorescein-labelled proline-rich peptide from the SOS1 proline-rich domain (human) (UniProt Q07889)
[3] = target: P4, fluorescein-labelled proline-rich peptide from the SOS1 proline-rich domain (human) (UniProt Q07889)
[4] = target: P5, fluorescein-labelled proline-rich peptide from the SOS1 proline-rich domain (human) (UniProt Q07889)
[5] = target: RP1, fluorescein-labelled reference peptide, a SOS1 derivative encompassing part of P3 (human) (UniProt Q07889)
[6] = target: RP2, fluorescein-labelled reference peptide from the N-terminal extension of the RHO GTPase WRCH1/RHOU (human) (UniProt Q7L0Q8)
RP2, fluorescein-labelled reference peptide from the N-terminal extension of the RHO GTPase WRCH1/RHOU (human), sequence (Q7L0Q8 whole entry, looked up, the tested form may be a part): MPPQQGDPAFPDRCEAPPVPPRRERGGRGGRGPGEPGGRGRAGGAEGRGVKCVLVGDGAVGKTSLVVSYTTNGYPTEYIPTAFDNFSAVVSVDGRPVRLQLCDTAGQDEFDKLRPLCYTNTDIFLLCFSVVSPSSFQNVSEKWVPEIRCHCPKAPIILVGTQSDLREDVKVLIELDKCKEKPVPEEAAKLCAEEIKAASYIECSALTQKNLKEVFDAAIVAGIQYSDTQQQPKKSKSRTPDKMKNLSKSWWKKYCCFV

[7] = target: P1, fluorescein-labelled proline-rich peptide from the SOS1 proline-rich domain (human) (UniProt Q07889)
[8] = target: P2, fluorescein-labelled proline-rich peptide from the SOS1 proline-rich domain (human) (UniProt Q07889)

CRK-1 SH3 domain, GST cleaved, sequence (P46108 127-301): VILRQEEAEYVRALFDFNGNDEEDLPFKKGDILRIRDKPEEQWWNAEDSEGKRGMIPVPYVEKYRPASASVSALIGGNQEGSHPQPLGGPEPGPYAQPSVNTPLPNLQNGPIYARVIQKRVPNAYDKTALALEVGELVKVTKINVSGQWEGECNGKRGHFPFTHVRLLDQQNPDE

Row | Substance | Kd [3] | Kd [5] | Kd [2] | Kd [6] | Kd [1] | other results
1 | CRK-1 SH3 domain, GST cleaved (from UniProt P46108) |  |  |  |  |  | Kd ([1]; domain or fragment): 18.1 µM; Kd ([2]; domain or fragment): 12.9 µM
2 | GRB2-1 | 60 µM | 11 µM | 15 µM |  |  | Kd [4]: 62 µM
3 | GRB2-2 | 20 µM | 3.4 µM | 12 µM |  |  | Kd [4]: 35 µM
4 | ITSN1-1 | 6.6 µM | 39 µM |  | 11 µM |  | 
5 | ITSN1-5 | 12 µM |  |  | 23 µM |  | Kd [7]: 23 µM
6 | RIMBP3B-1 |  |  |  |  | 15 µM | Kd [8]: 21 µM
7 | SH3PXD2A-1 |  |  | 18 µM | 21 µM |  | Kd [8]: 44 µM
8 | SORBS1-1 |  |  |  |  | 13.2 µM | 
9 | SRC |  |  | 2 µM |  | 13.3 µM | 
